Our source for the inhibition of hNatA (100 nM) acetylation activity against SASE peptide, MBP-HYPK titrated and Kd values is article PMC7010799.

The target in assay [1] is human NatA complex (hNAA15/hNAA10) (human) (UniProt Q9BXJ9).
For assay [2] the target is unchanged. Kind of assay: ITC; MicroCal iTC200, 20 °C; 25 mM HEPES pH 7.0, 200 mM NaCl, 1 mM DTT; 15 μM hNatA or hNatE in the cell, 150 μM MBP-HYPK in the syringe.

Chain of human NatA complex (hNAA15/hNAA10) (human) (Q9BXJ9 whole entry, chain 1 of 2): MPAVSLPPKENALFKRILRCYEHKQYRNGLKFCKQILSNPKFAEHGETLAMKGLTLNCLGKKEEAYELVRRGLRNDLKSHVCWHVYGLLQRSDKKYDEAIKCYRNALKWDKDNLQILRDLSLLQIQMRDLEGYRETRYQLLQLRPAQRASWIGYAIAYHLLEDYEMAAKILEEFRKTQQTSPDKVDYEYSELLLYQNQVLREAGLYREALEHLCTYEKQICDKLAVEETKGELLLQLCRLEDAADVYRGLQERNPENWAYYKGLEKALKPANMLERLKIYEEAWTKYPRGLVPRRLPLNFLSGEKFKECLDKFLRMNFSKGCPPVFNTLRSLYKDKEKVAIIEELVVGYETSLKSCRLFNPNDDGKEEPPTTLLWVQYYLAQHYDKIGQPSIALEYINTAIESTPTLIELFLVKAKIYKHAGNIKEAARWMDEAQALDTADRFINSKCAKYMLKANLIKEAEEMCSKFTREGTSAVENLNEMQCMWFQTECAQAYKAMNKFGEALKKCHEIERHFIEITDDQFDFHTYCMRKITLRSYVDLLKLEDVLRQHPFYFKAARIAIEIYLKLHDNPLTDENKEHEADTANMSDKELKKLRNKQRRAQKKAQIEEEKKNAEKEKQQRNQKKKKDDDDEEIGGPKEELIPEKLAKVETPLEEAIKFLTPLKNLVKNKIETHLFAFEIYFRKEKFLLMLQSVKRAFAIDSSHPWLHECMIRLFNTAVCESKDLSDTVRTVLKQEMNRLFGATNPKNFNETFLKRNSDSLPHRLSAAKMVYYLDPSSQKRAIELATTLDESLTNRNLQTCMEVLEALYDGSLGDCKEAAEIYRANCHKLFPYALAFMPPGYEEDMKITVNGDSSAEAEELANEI
Chain of human NatA complex (hNAA15/hNAA10) (human) (P41227 whole entry, chain 2 of 2, further chain): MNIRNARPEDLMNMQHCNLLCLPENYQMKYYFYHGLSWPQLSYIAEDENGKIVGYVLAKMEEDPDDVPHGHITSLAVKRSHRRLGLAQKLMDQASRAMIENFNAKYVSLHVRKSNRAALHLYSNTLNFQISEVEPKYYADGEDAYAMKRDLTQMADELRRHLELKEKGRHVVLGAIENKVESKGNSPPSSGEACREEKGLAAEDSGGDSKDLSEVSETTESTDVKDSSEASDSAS
Chain of maltose-binding protein (MBP) tagged HYPK (from UniProt Q9NX55 1-121) (natural protein; other documents disagree on this pair) (Q9NX55 whole entry): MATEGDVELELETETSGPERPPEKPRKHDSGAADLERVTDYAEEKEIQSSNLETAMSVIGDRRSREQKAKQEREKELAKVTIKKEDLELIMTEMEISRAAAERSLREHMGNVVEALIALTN
Chain of maltose-binding protein (MBP) tagged HYPK (from UniProt Q9NX55 1-121) (natural protein) (Q9NX55 whole entry): as above

“maltose-binding protein (MBP) tagged HYPK (from UniProt Q9NX55 1-121) (natural protein)”: the inhibition of hNatA (100 nM) acetylation activity against SASE peptide, MBP-HYPK titrated in assay [1] came out at 90%. For “maltose-binding protein (MBP) tagged HYPK (from UniProt Q9NX55 1-121) (natural protein; other documents disagree on this pair)”, the Kd (as a rule, a measure of binding affinity in units of concentration) in assay [2] turned out to be 29.9 nM.
